Source: PMC10786891, “Massively parallel profiling of RNA-targeting CRISPR-Cas13d”

T1: EsCas13d, nuclease-dead (Eubacterium siraeum, UniProt B0MS50, R295A;H300A;R849A;H854A)
T1 sequence: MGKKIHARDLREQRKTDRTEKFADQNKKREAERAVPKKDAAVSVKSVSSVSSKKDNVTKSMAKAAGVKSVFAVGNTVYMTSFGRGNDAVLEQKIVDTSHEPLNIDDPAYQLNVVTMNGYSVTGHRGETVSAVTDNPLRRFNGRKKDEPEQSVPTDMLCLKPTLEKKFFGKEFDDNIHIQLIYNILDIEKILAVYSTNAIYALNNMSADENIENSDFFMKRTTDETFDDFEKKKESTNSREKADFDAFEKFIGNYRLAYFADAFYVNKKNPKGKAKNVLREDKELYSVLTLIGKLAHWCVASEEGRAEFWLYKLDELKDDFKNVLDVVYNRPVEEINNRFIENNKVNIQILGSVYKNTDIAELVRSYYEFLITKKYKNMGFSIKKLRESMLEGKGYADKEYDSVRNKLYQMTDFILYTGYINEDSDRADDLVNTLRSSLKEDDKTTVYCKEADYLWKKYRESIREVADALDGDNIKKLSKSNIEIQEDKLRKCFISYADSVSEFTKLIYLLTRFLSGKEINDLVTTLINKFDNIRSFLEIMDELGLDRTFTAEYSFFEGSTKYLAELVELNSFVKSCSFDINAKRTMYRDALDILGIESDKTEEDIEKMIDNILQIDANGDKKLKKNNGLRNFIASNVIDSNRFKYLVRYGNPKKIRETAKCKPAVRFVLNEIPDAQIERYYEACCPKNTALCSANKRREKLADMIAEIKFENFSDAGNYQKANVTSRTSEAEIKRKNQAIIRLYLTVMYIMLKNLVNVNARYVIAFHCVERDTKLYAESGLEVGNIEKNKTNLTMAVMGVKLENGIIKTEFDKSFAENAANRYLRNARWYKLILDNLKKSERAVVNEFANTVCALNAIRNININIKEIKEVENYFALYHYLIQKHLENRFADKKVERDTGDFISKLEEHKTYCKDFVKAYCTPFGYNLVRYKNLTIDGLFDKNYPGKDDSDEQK


Each binder was assayed against T1, EsCas13d, nuclease-dead (assay: crRNA (strand 1, pre-loaded); Mg2+; 40 mM Tris-HCl pH 7.5, 150 mM NaCl, 6 mM MgCl2, 1 mM DTT, 0.1% Tween-20, 0.2 mg/ml BSA; 25 C; 10 min per concentration, then washed). Details: tags: His6-TwinStrep-SUMO cleaved; N-terminal SNAP kept (SNAP-Surface 488); label: 3' end held by stalled T7 RNA polymerase.

| Binder | Kd |
| --- | --- |
| target 1 insA 3' of 19,insG 3' of 10 (mixed) RNA 1: CACCCGUGCAAAAAUGCAGGGGUCUAAAACUGAGCGGAUAACCUCUCUAUGG RNA 2: GGGAAUGGAUCCACAUCUACGAAUUCGUACCAUAAGAGAGGUUGAUCCGCUCACCGAGAUCGGAAGAGCACACGU | 68 ± 28 nM |
| target 1 U8G,C22G (mixed) RNA 1: CACCCGUGCAAAAAUGCAGGGGUCUAAAACUGAGCGGAUAACCUCUCUAUGG RNA 2: GGGAAUGGAUCCACAUCUACGAAUUCGUAGCAUAGAGAGGUUAGCCGCUCACCGAGAUCGGAAGAGCACACGU | 43 ± 11 nM |
| target 1 insA 3' of 15,insC 3' of 13 (mixed) RNA 1: CACCCGUGCAAAAAUGCAGGGGUCUAAAACUGAGCGGAUAACCUCUCUAUGG RNA 2: GGGAAUGGAUCCACAUCUACGAAUUCGUACCAUAGAGAAGCGUUAUCCGCUCACCGAGAUCGGAAGAGCACACGU | 16.4 ± 2.3 nM |
| target 1 del11 (mixed) RNA 1: CACCCGUGCAAAAAUGCAGGGGUCUAAAACUGAGCGGAUAACCUCUCUAUGG RNA 2: GGGAAUGGAUCCACAUCUACGAAUUCGUACCAUAGAGAGGUAUCCGCUCACCGAGAUCGGAAGAGCACACGU | 15.9 ± 0.9 nM |
| target 1 insU 3' of 17,insA 3' of 2 (mixed) RNA 1: CACCCGUGCAAAAAUGCAGGGGUCUAAAACUGAGCGGAUAACCUCUCUAUGG RNA 2: GGGAAUGGAUCCACAUCUACGAAUUCGUACCAUAGUAGAGGUUAUCCGCUCAACCGAGAUCGGAAGAGCACACGU | 17.6 ± 1.8 nM |
| target 1 G13U,A16G (mixed) RNA 1: CACCCGUGCAAAAAUGCAGGGGUCUAAAACUGAGCGGAUAACCUCUCUAUGG RNA 2: GGGAAUGGAUCCACAUCUACGAAUUCGUACCAUAGGGAUGUUAUCCGCUCACCGAGAUCGGAAGAGCACACGU | 100 ± 50 nM |
| target 1 insU 3' of 21,insG 3' of 9 (mixed) RNA 1: CACCCGUGCAAAAAUGCAGGGGUCUAAAACUGAGCGGAUAACCUCUCUAUGG RNA 2: GGGAAUGGAUCCACAUCUACGAAUUCGUACCUAUAGAGAGGUUAGUCCGCUCACCGAGAUCGGAAGAGCACACGU | 77 ± 19 nM |
| target 1 insC 3' of 11,insU 3' of 6 (mixed) RNA 1: CACCCGUGCAAAAAUGCAGGGGUCUAAAACUGAGCGGAUAACCUCUCUAUGG RNA 2: GGGAAUGGAUCCACAUCUACGAAUUCGUACCAUAGAGAGGUCUAUCCUGCUCACCGAGAUCGGAAGAGCACACGU | 69 ± 8 nM |
| target 1 insA 3' of 21,insU 3' of 18 (mixed) RNA 1: CACCCGUGCAAAAAUGCAGGGGUCUAAAACUGAGCGGAUAACCUCUCUAUGG RNA 2: GGGAAUGGAUCCACAUCUACGAAUUCGUACCAAUAUGAGAGGUUAUCCGCUCACCGAGAUCGGAAGAGCACACGU | 46 ± 7 nM |
| target 1 insA 3' of 21,insU 3' of 5 (mixed) RNA 1: CACCCGUGCAAAAAUGCAGGGGUCUAAAACUGAGCGGAUAACCUCUCUAUGG RNA 2: GGGAAUGGAUCCACAUCUACGAAUUCGUACCAAUAGAGAGGUUAUCCGUCUCACCGAGAUCGGAAGAGCACACGU | 30 ± 5 nM |
| target 1 C7A,G12U (mixed) RNA 1: CACCCGUGCAAAAAUGCAGGGGUCUAAAACUGAGCGGAUAACCUCUCUAUGG RNA 2: GGGAAUGGAUCCACAUCUACGAAUUCGUACCAUAGAGAGUUUAUACGCUCACCGAGAUCGGAAGAGCACACGU | 15.3 ± 1.5 nM |
| target 1 U10A,A16C (mixed) RNA 1: CACCCGUGCAAAAAUGCAGGGGUCUAAAACUGAGCGGAUAACCUCUCUAUGG RNA 2: GGGAAUGGAUCCACAUCUACGAAUUCGUACCAUAGCGAGGUAAUCCGCUCACCGAGAUCGGAAGAGCACACGU | 68 ± 10 nM |
| target 1 A18U,A20G (mixed) RNA 1: CACCCGUGCAAAAAUGCAGGGGUCUAAAACUGAGCGGAUAACCUCUCUAUGG RNA 2: GGGAAUGGAUCCACAUCUACGAAUUCGUACCGUUGAGAGGUUAUCCGCUCACCGAGAUCGGAAGAGCACACGU | 93 ± 30 nM |
| target 1 C4G,U11C (mixed) RNA 1: CACCCGUGCAAAAAUGCAGGGGUCUAAAACUGAGCGGAUAACCUCUCUAUGG RNA 2: GGGAAUGGAUCCACAUCUACGAAUUCGUACCAUAGAGAGGCUAUCCGGUCACCGAGAUCGGAAGAGCACACGU | 9 ± 0.8 nM |
| target 1 insG 3' of 7,insA 3' of 2 (mixed) RNA 1: CACCCGUGCAAAAAUGCAGGGGUCUAAAACUGAGCGGAUAACCUCUCUAUGG RNA 2: GGGAAUGGAUCCACAUCUACGAAUUCGUACCAUAGAGAGGUUAUCGCGCUCAACCGAGAUCGGAAGAGCACACGU | 6.36 ± 0.31 nM |
| target 1 insG 3' of 7,insG 3' of 1 (mixed) RNA 1: CACCCGUGCAAAAAUGCAGGGGUCUAAAACUGAGCGGAUAACCUCUCUAUGG RNA 2: GGGAAUGGAUCCACAUCUACGAAUUCGUACCAUAGAGAGGUUAUCGCGCUCAGCCGAGAUCGGAAGAGCACACGU | 6.65 ± 0.35 nM |
| target 1 del3,del7 (mixed) RNA 1: CACCCGUGCAAAAAUGCAGGGGUCUAAAACUGAGCGGAUAACCUCUCUAUGG RNA 2: GGGAAUGGAUCCACAUCUACGAAUUCGUACCAUAGAGAGGUUAUCGCCACCGAGAUCGGAAGAGCACACGU | 4.94 ± 0.21 nM |
| target 1 insU 3' of 20,insG 3' of 11 (mixed) RNA 1: CACCCGUGCAAAAAUGCAGGGGUCUAAAACUGAGCGGAUAACCUCUCUAUGG RNA 2: GGGAAUGGAUCCACAUCUACGAAUUCGUACCAUUAGAGAGGUGUAUCCGCUCACCGAGAUCGGAAGAGCACACGU | 51 ± 12 nM |
| target 1 C7U,A16U (mixed) RNA 1: CACCCGUGCAAAAAUGCAGGGGUCUAAAACUGAGCGGAUAACCUCUCUAUGG RNA 2: GGGAAUGGAUCCACAUCUACGAAUUCGUACCAUAGUGAGGUUAUUCGCUCACCGAGAUCGGAAGAGCACACGU | 46 ± 7 nM |
| target 1 insA 3' of 19,insU 3' of 15 (mixed) RNA 1: CACCCGUGCAAAAAUGCAGGGGUCUAAAACUGAGCGGAUAACCUCUCUAUGG RNA 2: GGGAAUGGAUCCACAUCUACGAAUUCGUACCAUAAGAGUAGGUUAUCCGCUCACCGAGAUCGGAAGAGCACACGU | 23.2 ± 2.6 nM |
| target 1 U10G,A14G (mixed) RNA 1: CACCCGUGCAAAAAUGCAGGGGUCUAAAACUGAGCGGAUAACCUCUCUAUGG RNA 2: GGGAAUGGAUCCACAUCUACGAAUUCGUACCAUAGAGGGGUGAUCCGCUCACCGAGAUCGGAAGAGCACACGU | 23.3 ± 1.3 nM |
| target 1 insG 3' of 9,insA 3' of 7 (mixed) RNA 1: CACCCGUGCAAAAAUGCAGGGGUCUAAAACUGAGCGGAUAACCUCUCUAUGG RNA 2: GGGAAUGGAUCCACAUCUACGAAUUCGUACCAUAGAGAGGUUAGUCACGCUCACCGAGAUCGGAAGAGCACACGU | 12.2 ± 0.6 nM |
| target 1 insC 3' of 12 (mixed) RNA 1: CACCCGUGCAAAAAUGCAGGGGUCUAAAACUGAGCGGAUAACCUCUCUAUGG RNA 2: GGGAAUGGAUCCACAUCUACGAAUUCGUACCAUAGAGAGGCUUAUCCGCUCACCGAGAUCGGAAGAGCACACGU | 8.3 ± 0.5 nM |
| target 1 insG 3' of 7,insC 3' of 1 (mixed) RNA 1: CACCCGUGCAAAAAUGCAGGGGUCUAAAACUGAGCGGAUAACCUCUCUAUGG RNA 2: GGGAAUGGAUCCACAUCUACGAAUUCGUACCAUAGAGAGGUUAUCGCGCUCACCCGAGAUCGGAAGAGCACACGU | 7.6 ± 0.5 nM |
| target 1 insA 3' of 21,insC 3' of 12 (mixed) RNA 1: CACCCGUGCAAAAAUGCAGGGGUCUAAAACUGAGCGGAUAACCUCUCUAUGG RNA 2: GGGAAUGGAUCCACAUCUACGAAUUCGUACCAAUAGAGAGGCUUAUCCGCUCACCGAGAUCGGAAGAGCACACGU | ~44 nM |
| target 1 U3A,U19C (mixed) RNA 1: CACCCGUGCAAAAAUGCAGGGGUCUAAAACUGAGCGGAUAACCUCUCUAUGG RNA 2: GGGAAUGGAUCCACAUCUACGAAUUCGUACCACAGAGAGGUUAUCCGCACACCGAGAUCGGAAGAGCACACGU | 24.2 ± 2.6 nM |
| target 1 del4,del9 (mixed) RNA 1: CACCCGUGCAAAAAUGCAGGGGUCUAAAACUGAGCGGAUAACCUCUCUAUGG RNA 2: GGGAAUGGAUCCACAUCUACGAAUUCGUACCAUAGAGAGGUUUCCGUCACCGAGAUCGGAAGAGCACACGU | 78 ± 15 nM |
| target 1 insU 3' of 17,insC 3' of 1 (mixed) RNA 1: CACCCGUGCAAAAAUGCAGGGGUCUAAAACUGAGCGGAUAACCUCUCUAUGG RNA 2: GGGAAUGGAUCCACAUCUACGAAUUCGUACCAUAGUAGAGGUUAUCCGCUCACCCGAGAUCGGAAGAGCACACGU | 18 ± 2.4 nM |
